# From patent publication US20120121581A1 (XOMA TECHNOLOGY, published 2012)
# Key:
# Assay in all cases: ELISA, toxin domain coated on plate
# [1] = biological target: BoNT/A heavy-chain C-terminus (HCC) domain (UniProt P0DPI0 1093-1296)
# [2] = biological target: BoNT/A light-chain heavy-chain N-terminus (LCHN) domain (UniProt P0DPI0 1-870)
# [3] = biological target: BoNT/A heavy-chain N-terminus (HCN) domain (UniProt P0DPI0 871-1092)
# Sequence of BoNT/A heavy-chain N-terminus (HCN) domain (P0DPI0 871-1092 limits assumed): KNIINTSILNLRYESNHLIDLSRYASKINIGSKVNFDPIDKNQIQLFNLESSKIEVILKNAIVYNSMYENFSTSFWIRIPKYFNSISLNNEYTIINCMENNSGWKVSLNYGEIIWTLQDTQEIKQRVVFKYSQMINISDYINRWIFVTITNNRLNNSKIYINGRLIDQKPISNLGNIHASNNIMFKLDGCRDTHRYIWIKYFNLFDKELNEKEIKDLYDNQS
# Sequence of BoNT/A heavy-chain C-terminus (HCC) domain (P0DPI0 1093-1296 limits assumed): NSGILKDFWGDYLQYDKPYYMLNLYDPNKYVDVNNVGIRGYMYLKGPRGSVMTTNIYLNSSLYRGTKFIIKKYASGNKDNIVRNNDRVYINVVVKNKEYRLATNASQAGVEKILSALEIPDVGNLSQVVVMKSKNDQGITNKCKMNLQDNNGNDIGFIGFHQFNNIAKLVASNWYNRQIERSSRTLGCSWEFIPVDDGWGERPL
# Sequence of BoNT/A light-chain heavy-chain N-terminus (LCHN) domain (P0DPI0 1-870 limits assumed): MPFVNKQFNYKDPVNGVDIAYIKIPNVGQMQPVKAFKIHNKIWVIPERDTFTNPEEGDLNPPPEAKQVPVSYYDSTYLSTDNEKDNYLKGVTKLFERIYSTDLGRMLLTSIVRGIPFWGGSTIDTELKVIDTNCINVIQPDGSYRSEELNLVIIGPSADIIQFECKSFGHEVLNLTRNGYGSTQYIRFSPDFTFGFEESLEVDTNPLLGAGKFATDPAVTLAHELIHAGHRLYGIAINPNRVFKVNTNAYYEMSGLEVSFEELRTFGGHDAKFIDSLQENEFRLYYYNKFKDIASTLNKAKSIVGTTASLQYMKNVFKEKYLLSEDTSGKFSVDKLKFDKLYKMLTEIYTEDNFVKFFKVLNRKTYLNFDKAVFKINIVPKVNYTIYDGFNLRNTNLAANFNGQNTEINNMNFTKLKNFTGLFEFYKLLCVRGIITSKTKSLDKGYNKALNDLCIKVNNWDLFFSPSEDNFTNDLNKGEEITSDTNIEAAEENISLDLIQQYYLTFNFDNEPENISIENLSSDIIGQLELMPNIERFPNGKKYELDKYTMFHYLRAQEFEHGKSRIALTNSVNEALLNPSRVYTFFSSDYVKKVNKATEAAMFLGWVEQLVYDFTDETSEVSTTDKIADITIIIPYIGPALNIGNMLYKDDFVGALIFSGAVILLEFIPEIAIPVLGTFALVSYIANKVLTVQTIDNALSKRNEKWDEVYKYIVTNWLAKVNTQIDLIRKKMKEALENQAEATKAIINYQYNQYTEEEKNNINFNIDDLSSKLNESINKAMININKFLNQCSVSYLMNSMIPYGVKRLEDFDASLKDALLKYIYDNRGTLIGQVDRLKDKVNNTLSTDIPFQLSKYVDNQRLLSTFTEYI
Binder,binding result [1],binding result [2],binding result [3]
"ABT01 (antibody, V domains shown) VH: QVQLQQSGGGLVQPGGSLRLSCAASGFTFKYDYMYWIRQAPGKGLEWVATISDGGSYTYYSDSVEGRFTTSRDNSKNTLYLQMNSLRAEDTAIYYCSRYRYDDAMDYWGQGTLVTVSS VL: EIVLTQSPATLSLSPGERATISCRASESVDSYGHSFMQWYQQKPGQAPRLLIYRASNLEPGIPARFSGSGSGTDFTLTISSLEPEDFAVYYCQQGNEVPFTFGQGTKVEIK",no binding,no binding,–
"ABT02 (antibody, V domains shown) VH: QVQLVQSGGGVVHPGRSLKLSCAGSGFTFSDYDMHWVRQAPGKGLEWVAVMWFDGTEKYSAESVKGRFTISRDNSKNTLFLQMNSLRADDTAVYYCAREPDWLLWGDRGALDVWGQGTTVTVSS VL: DIVMTQSPSTLSASVGDRVTITCWASQSISSRLAWYQQKPGKAPKLLMYEATSLGSGVPSRFSGSGSGTEFTLTISSLQPDDFAAYYCQHYDTYPYTFGQGTKLEIK",–,no binding,no binding
"ABT03 (antibody, V domains shown) VH: QVQLQQSGGGLVQPGGSLRLSCAASGFTFSNYAMTWVRQAPGKGLEWVSSISVGGSDTYYADSVKGRFTVSRDNSKNTLLLQMNSLRAEDTAVYYCAKVRTKYCSSLSCFAGFDSWGQGTRVTVSS VL: DVVMTQSPSSLSASVGDRVTITCRASQSISSYLHWYQQKPGKAPTLLISDASSSQSGVPSRFSGSRFGTDFTLTISSLQPEDFATYYCQQSYSTRALTFGGGTKVEIK",no binding,–,no binding
